Results as given in US20150307565A1 (WISCONSIN ALUMNI RESEARCH FOUNDATION, published 2015).

B1: Arabidopsis PhyB(90-624) biliprotein bearing a C-terminal SLHHHHHH tag, assembled with phytochromobilin (PΦB) (receptor, Arabidopsis thaliana)
chain: TTYGSSVPEQQITAYLSRIQRGGYIQPFGCMIAVDESSFRIIGYSENAREMLGIMPQSVPTLEKPEILAMGTDVRSLFTSSSSILLERAFVAREITLLNPVWIHSKNTGKPFYAILHRIDVGVVIDLEPARTEDPALSIAGAVQSQKLAVRAISQLQALPGGDIKLLCDTVVESVRDLTGYDRVMVYKFHEDEHGEVVAESKRDDLEPYIGLHYPATDIPQASRFLFKQNRVRMIVDCNATPVLVVQDDRLTQSMCLVGSTLRAPHGCHSQYMANMGSIASLAMAVIINGNEDDGSNVASGRSSMRLWGLVVCHHTSSRCIPFPLRYACEFLMQAFGLQLNMELQLALQMSEKRVLRTQTLLCDMLLRDSPAGIVTQSPSIMDLVKCDGAAFLYHGKYYPLGVAPSEVQIKDVVEWLLANHADSTGLSTDSLGDAGYPGAAALGDAVCGMAVAYITKRDFLFWFRSHTAKEIKWGGAKHHPEDKDDGQRMHPRSSFQAFLEVVKSRSQPWETAEMDAIHSLQLILRDSFKESEAASLHHHHHH
modifications: phytochromobilin (PΦB) attached by a thioether linkage to Cys-357
notes: Crystallized as Pr; Two subunits (A and B) form the crystal dimer; also called PDB 4OUR
B2: Arabidopsis PhyB PSM (residues 1-624) assembled with PΦB (receptor, Arabidopsis thaliana, UniProt P14713 1-624, looked up)
chain: MVSGVGGSGGGRGGGRGGEEEPSSSHTPNNRRGGEQAQSSGTKSLRPRSNTESMSKAIQQYTVDARLHAVFEQSGESGKSFDYSQSLKTTTYGSSVPEQQITAYLSRIQRGGYIQPFGCMIAVDESSFRIIGYSENAREMLGIMPQSVPTLEKPEILAMGTDVRSLFTSSSSILLERAFVAREITLLNPVWIHSKNTGKPFYAILHRIDVGVVIDLEPARTEDPALSIAGAVQSQKLAVRAISQLQALPGGDIKLLCDTVVESVRDLTGYDRVMVYKFHEDEHGEVVAESKRDDLEPYIGLHYPATDIPQASRFLFKQNRVRMIVDCNATPVLVVQDDRLTQSMCLVGSTLRAPHGCHSQYMANMGSIASLAMAVIINGNEDDGSNVASGRSSMRLWGLVVCHHTSSRCIPFPLRYACEFLMQAFGLQLNMELQLALQMSEKRVLRTQTLLCDMLLRDSPAGIVTQSPSIMDLVKCDGAAFLYHGKYYPLGVAPSEVQIKDVVEWLLANHADSTGLSTDSLGDAGYPGAAALGDAVCGMAVAYITKRDFLFWFRSHTAKEIKWGGAKHHPEDKDDGQRMHPRSSFQAFLEVVKSRSQPWETAEMDAIHSLQLILRDSFKESEAA
modifications: phytochromobilin (PΦB) attached by a thioether linkage to Cys-357
notes: Tested for self-association in solution as Pr (equilibrium sedimentation, SEC) and as mostly Pfr after red light (SEC); also called full PSM fragment; full-length PSM; not shown: 6His tag: the PSM constructs carried N- or C-terminal 6His tags (the N-terminal one is TEV-cleavable and leaves Gly-His)

What was measured:
[1] = biological target: the molecule itself; assay: X-ray crystallography (self-association in the crystal)
Method: Well ordered crystals were formed in solutions containing 15 mg/ml PhyB, 1.2 M MgSO₄, 4% glycerol, 1% poly(ethylene glycol) 3350, and 100 mM BisTris(HCl) (pH 5.5). Crystals were exchanged into 100 mM MgSO₄, 25% poly(ethylene glycol) 3350, 15% poly(ethylene glycol) 550 monomethyl ether, and 100 mM BisTris (pH 5.5), and flash cooled in liquid nitrogen. Final datasets were collected at the Life Sciences Collaborative Access Team at the Advanced Photon Source (Argonne, Ill.), and indexed, integrated, and scaled using HKL2000 (Otwinowski et al., Method Enzymol. 276-307-326 (1997)). Initial phases were calculated by PHASER (McCoy et al., J. Appl. Crystallogr 40:658-674 (2007)) using the PAS-GAF region of Syn-Cph1 as the search model (PDB 2VEA, (Essen et al., Proc. Natl. Acad. Sci. USA 105:14709-14714 (2008)). Manual model-building was conducted with COOT (Emlsey et al., Acta Crystallogr D Biol. Crystallogr 60:2126-2132 (2004)) and refined with PHENIX (McCoy et al., J. Appl. Crystallogr 40:658-674 (2007)) without real-space refinement and invoking non-crystallographic symmetry in torsion angle mode, and validated with MOLPROBITY (Chen et al., Acta Crystallogr D Biol. Crystallogr 66:12-21 (2010)). Superpositions were arranged with LSQKAB (Kabsch, Acta Crystallogr A 32:922-923 (1976)).

[2] = biological target: the molecule itself; assay: equilibrium sedimentation (Pr) and size exclusion chromatography (Pr and Pfr); self-association
Method: FIG. 8A: Apparent size of PhyB(PSM) was measured by size exclusion chromatography (SEC) as either Pr (red circle) or following saturating red light irradiation (mostly Pfr) (purple circle). The column was calibrated with Bio-Rad size-exclusion protein standards and blue dextran (open circles). The partition coefficient, Kₐᵥ, was calculated using the equation, Kₐᵥ=(Vₑ−V₀)/(Vₜ−V₀), where Vₑ, V₀, and Vₜ are the elution, void and total volumes, respectively. V₀ and Vₜ were measured using blue dextran and vitamin B12. FIG. 8B: Equilibrium sedimentation was used to measure the mass of PhyB(PSM) as Pr using two concentrations and three rotor speeds. Lines represent global fits of the data. The calculated ratio of the measured molecular weight to that calculated from the sequence is shown.
Equilibrium sedimentation was conducted at 20° C. in darkness with Beckmann XL-A analytical ultracentrifuge and PhyB dissolved as Pr in SAB. SEC was conducted at 20° C. by FPLC (0.2 ml/min) with a 0.5×20 cm analytical grade Superdex 200 column (GE) equilibrated with SAB and 50 μl of either Pr samples or samples continuously irradiated with red light (mostly Pfr).

Protein | binding result [1] | binding result [2]
B1 | binds | –
B2 | – | no binding
